Laboratory results: patent US20060246046A1 (published 2006)

T1: factor XIIIa (human, UniProt P00488 39-732)
T1 sequence (looked up): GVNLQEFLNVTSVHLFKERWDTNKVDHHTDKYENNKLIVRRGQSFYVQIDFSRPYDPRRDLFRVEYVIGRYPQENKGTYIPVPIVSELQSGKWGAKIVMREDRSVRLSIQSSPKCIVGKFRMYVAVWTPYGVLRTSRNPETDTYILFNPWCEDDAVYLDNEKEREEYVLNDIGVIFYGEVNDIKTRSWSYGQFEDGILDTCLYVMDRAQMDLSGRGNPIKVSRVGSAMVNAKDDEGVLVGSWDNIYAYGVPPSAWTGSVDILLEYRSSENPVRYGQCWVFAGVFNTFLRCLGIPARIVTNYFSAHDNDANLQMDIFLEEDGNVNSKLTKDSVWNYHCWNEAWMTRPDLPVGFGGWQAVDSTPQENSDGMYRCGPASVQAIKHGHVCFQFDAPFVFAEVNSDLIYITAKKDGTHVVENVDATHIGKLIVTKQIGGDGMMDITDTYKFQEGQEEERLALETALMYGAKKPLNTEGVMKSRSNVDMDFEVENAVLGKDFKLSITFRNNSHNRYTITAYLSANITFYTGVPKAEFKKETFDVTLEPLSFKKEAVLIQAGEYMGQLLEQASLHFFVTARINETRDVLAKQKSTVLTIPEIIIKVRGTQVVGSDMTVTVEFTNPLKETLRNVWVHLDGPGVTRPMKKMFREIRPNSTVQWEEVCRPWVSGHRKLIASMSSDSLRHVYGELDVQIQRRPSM


How the values were obtained:
Assay in all cases: cell-based or functional assay
factor XIIIa [1] = biological target: T1, factor XIIIa
factor XIIIa [2] = biological target: T1, factor XIIIa; remark: listed apart in the source
factor XIIIa [3] = biological target: T1, factor XIIIa; remark: listed apart in the source

Binder	IC50, Berichrom assay, HPLC-purified peptide (factor XIIIa [1])	Relative inhibitory effect (%) at 7.27 µM, recombinant tridegin = 100% (factor XIIIa [2])	Relative inhibitory effect (%) at 5.45 µM, wild type = 100% (factor XIIIa [3])	further results
Ac-DDIYQRPVEFPNLPLKPREE-NH2 [20 amino acid-long tridegin peptide SEQ ID NO.26]	5 µM	35.6%	–	–
Ac-IKPMDDIYQRPVEFPNLPLK-NH2 [20 amino acid-long tridegin peptide SEQ ID NO.24]	7 µM	43.5%	–	–
Ac-PMDDIYQRPVEFPNLPLKPR-NH2 [20 amino acid-long tridegin peptide SEQ ID NO.25]	4 µM	42.1%	–	–
modified tridegin Cys variant C32A (protein, not shown: small tags and cut ends) MKLLPCKEWHQGIPNPRCWCGADLECAQDQYAAFIPQCRPRSELIKPMDDIYQRPVEFPNLPLKPREE	–	–	86%	–
modified tridegin Cys variant C26A; +C38A (protein, not shown: small tags and cut ends) MKLLPCKEWHQGIPNPRCWCGADLEAAQDQYCAFIPQARPRSELIKPMDDIYQRPVEFPNLPLKPREE	–	–	80%	–
modified tridegin L24A (protein, not shown: small tags and cut ends) MKLLPCKEWHQGIPNPRCWCGADAECAQDQYCAFIPQCRPRSELIKPMDDIYQRPVEFPNLPLKPREE	–	–	92%	–
modified tridegin Y31A (protein, not shown: small tags and cut ends) MKLLPCKEWHQGIPNPRCWCGADLECAQDQACAFIPQCRPRSELIKPMDDIYQRPVEFPNLPLKPREE	–	–	69%	–
DDIYQRPVEFPNLP [DDIYQRPVEFPNLP (SEQ ID No. 88) (14mer)]	–	–	–	IC50, Berichrom test, purified peptide (factor XIIIa [1]): ~280 µM
MDDIYQRPVEFPNLPL [MDDIYQRPVEFPNLPL (SEQ ID No. 87) (16mer)]	–	–	–	IC50, Berichrom test, purified peptide (factor XIIIa [1]): 19 µM
